Assay results: patent US12090209B2, “Twin base linkers for virus inactivation” (priority 2020, dated 2024)
Where no end group is shown, it is not given here.

Target: heat-inactivated SARS-CoV-2 spike (S) protein (Severe acute respiratory syndrome coronavirus 2, UniProt P0DTC2)

TBL-SADE: TBS monomer of Formula 1 wherein L=SADE (SEQ ID NO:2) peptide, no further targeting moieties (also: TBS monomer of Formula 1, L = SADE, functionalized)
binding to SARS-CoV-2 spike (S) protein: confirmed binding
